The values below come from PMC13480645.

This assay deals with MERS-CoV S2 stem helix peptide (MERS-CoV).

Sequence of S2P6 (antibody) (VH): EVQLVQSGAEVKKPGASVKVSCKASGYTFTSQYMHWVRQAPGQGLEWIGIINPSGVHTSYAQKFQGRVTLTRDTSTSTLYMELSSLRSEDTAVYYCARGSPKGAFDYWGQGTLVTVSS
Sequence of S2P6 (antibody) (VL): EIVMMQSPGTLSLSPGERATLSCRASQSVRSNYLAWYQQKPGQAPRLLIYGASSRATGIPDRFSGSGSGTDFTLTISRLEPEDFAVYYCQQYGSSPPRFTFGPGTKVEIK

In turn, S2P6 (antibody) came in with an IC50 of neutralisation of MERS-CoV pseudovirus (HeLa-hDPP4 cells) of 8.37 mg/L.
